Results: patent US20040138431A1 (Genentech, published 2004)

Biological target: trkB with a gD tag expressed on CHO cells
Experiment: cell-based or functional assay

EC50, kinase receptor activation (KIRA) assay: 0.0126 µg/mL
B1: recombinant human NT-4/5 (rhNT-4/5), correctly folded, intact, purified from E. coli (ligand)
chain: GVSETAPASRRGELAVCDAVSGWVTDRRTAVDLRGREVEVLGEVPAAGGSPLRQYFFETRCKADNAEEGGPGAGGGGCRGVDRRHWVSECKAKQSYVRALTAHAQGRVGWRWIRIDTACVCTLLSRTGRA
